The source of these data is patent US9688764B2, “Methods of treating breast cancer by administering anti-human prolactin receptor (PRLR) antibodies” (REGENERON PHARMACEUTICALS, INC., priority 2013, dated 2017).

First the molecules themselves.
T1: HEK293/mPRLR (Mus musculus, UniProt Q08501)
T1 construct: HA; expressed in transfected cells; host or cells: HEK293
T1 sequence (Q08501 20-608): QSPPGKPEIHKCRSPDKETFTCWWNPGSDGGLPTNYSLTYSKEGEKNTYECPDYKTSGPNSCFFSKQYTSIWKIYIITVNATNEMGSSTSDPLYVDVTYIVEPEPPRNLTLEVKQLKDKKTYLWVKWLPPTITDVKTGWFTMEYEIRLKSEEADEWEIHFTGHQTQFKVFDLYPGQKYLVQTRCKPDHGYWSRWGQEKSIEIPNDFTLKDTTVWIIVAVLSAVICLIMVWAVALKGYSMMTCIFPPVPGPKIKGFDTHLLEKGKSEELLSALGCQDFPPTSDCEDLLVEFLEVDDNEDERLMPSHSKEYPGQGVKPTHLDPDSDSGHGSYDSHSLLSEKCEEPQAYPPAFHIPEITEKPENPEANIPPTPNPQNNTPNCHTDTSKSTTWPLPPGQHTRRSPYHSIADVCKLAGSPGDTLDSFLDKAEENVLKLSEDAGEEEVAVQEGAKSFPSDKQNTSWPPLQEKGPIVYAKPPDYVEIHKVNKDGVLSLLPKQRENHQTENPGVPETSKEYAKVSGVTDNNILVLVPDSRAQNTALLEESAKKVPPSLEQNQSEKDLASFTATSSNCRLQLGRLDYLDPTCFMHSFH

T2: HEK293/hPRLR (Homo sapiens, UniProt P16471)
T2 construct: HA; expressed in transfected cells; host or cells: HEK293
T2 sequence (P16471 25-622): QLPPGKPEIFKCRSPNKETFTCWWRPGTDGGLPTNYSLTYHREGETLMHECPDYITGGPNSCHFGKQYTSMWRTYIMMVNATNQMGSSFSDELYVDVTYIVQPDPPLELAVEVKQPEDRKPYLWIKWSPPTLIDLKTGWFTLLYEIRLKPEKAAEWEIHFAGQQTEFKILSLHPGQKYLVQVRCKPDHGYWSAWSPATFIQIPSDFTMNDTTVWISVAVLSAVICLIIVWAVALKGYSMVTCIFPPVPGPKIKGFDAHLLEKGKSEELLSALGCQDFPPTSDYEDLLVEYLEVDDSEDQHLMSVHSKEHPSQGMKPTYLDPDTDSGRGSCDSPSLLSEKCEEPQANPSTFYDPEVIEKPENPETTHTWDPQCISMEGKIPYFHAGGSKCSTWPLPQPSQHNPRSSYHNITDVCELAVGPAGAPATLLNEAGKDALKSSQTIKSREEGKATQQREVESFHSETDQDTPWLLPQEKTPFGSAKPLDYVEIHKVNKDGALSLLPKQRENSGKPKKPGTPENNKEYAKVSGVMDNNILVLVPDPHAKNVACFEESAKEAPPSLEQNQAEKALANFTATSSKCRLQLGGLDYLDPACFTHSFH

T3: T47D (native PRLR expressing cell line) (Homo sapiens, UniProt P16471)
T3 construct: a native PRLR expressing cell line (T47D); endogenous in cells; host or cells: T47D
T3 sequence (P16471 25-622): T2 sequence (P16471 25-622)

B1: H1H6800P: anti-PRLR antibody, human IgG1 Fc; HCVR/LCVR SEQ ID NOs 194/202 (antibody, V domains shown)
VH: EVQLVESGGGLVQPGRSLRLSCAASGFTFDGYAMHWVRQGPGKGLEWVSGISWYSDTLGYADSVKGRFTISRDNAKNSLYLQMNSLRTEDTAFYYCAKISSSGWAFDYWGQGTLVTVSS
VL: EIVLTQSPGTLSLSPGERATLSCRASHSVSSAYLAWYQQKPGQTPRLLIYGTSSRATGIPDRFSGSGSGTDFTLTISRLEPEDFAVYYCQQYGSSPLFTFGPGTKVDIK
modifications: human IgG1 Fc
B2: H1H6797P: anti-PRLR antibody, human IgG1 Fc; HCVR/LCVR SEQ ID NOs 178/186 (antibody, V domains shown)
VH: EVQLVESGGGLVQPGGSLRLSCIVSGFTFSGSWMSWVRQLPGKGLEWVANIKEDGSDSYYVDSVEGRFTISRDNAKSSLYLQMNSLRVDDTAVYFCARARTVPLHYWGQGTLVTVSS
VL: DIQMTQSPSTLSASVGDRVTITCRASQSINIWLAWYQQKPGKAPKLLIYRASYLESGVPSSFAGGGSGTEFTLTISSLQPDDFGTYYCQHYNSYPFTFGQGTKLEIK
modifications: human IgG1 Fc
B3: H1H6793P: anti-PRLR antibody, human IgG1 Fc; HCVR/LCVR SEQ ID NOs 146/154 (antibody, V domains shown)
VH: EVQLVESGGGLVQPGGSLRLSCAASGFSFSIYAMSWFRQAPGKGLEWVSAINGRGDGTHYADSVKGRFTISRDNSKTTLYLQMSSLRAEDTAVYYCAKPVMSTNGFDIWGQGTMVTVSS
VL: DIQMTQSPSTLSASVGDRVTITCRASQSISSWLAWYQLKPGKAPKLLIYKASNLESGVPSRFSGSGSGTEFTLTISSLQPDDFATYYCQQYNIYWTFGQGTKVEIK
modifications: human IgG1 Fc
B4: H1H6792P: anti-PRLR antibody, human IgG1 Fc; HCVR/LCVR SEQ ID NOs 130/138 (antibody, V domains shown)
VH: EVQLVESGGGLVQPGRSLRLSCAASGFTLDDHAVHWVRQAPGKGLEWVSGISWNSVYIDYADSVKGRFTIFRDNAKNSLYLQMNSLRAEDTAFYYCARDIEGARDYWGQGTLVTVSS
VL: DIQMTQSPSSLSASVGDRVTITCRASQGIRNDLGWYQQKPGKAPKRLIYAASSLQSGVPSRFSGSGYGTEFTLTISSLQPEDFAPYYCLQHNSYPLTFGGGTKVEIK
modifications: human IgG1 Fc
B5: H1H6795P: anti-PRLR antibody, human IgG1 Fc; HCVR/LCVR SEQ ID NOs 162/170 (antibody, V domains shown)
VH: QVQLVQSGAEVKKPGASVKVSCKASGYTFGTSGITWVRQAPGQGLEWMGWSSAYNGKTDYAQKFQDRVTMTTDTSTTTGYMEMRSLTSDDTAVYYCTTVVRRPFDFWGQGTLVTVSS
VL: DIQMTQSPSSLSASVGDRVTITCRASQDINNFLAWFQQKPGKAPKSLIYAASSLQSGVPSKFSGGGSGTDFALTISSLQPEDFATYYCQQYSSYPITFGQGTRLEIK
modifications: human IgG1 Fc

Sequence of mfPRLR.mmh (monomeric macaca fascicularis PRLR) (as listed by the source): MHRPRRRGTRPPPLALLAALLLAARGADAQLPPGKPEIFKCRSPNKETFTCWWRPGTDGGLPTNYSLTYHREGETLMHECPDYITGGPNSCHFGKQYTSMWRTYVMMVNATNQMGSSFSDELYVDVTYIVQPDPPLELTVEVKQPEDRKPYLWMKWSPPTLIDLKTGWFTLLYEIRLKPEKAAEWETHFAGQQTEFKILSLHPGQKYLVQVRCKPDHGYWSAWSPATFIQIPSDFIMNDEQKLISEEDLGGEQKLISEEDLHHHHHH

The first experiment concerns HEK293 (non-expressing parental cells). The experiment can be described thus: FACS cell surface binding.
Conditions: not given
The method, boiled down: (§1)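 HEK293 lines stably expressing HA-tagged human, cynomolgus or mouse PRLR, native-expressing T47D and parental HEK293 tested by flow cytometry. Cells (1×10^5) stained with primary antibody 30 min on ice, then PE anti-human secondary; MFI expressed as fold over isotype control.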
Consider B1, for which the “FACS Cell Binding (Fold Above Background)” value is listed as 1 Fold Above Background.

On to B2, for which the “FACS Cell Binding (Fold Above Background)” value stood at 1 Fold Above Background.

As for B3, the “FACS Cell Binding (Fold Above Background)” value came out at 2 Fold Above Background.

For the molecule B4, the “FACS Cell Binding (Fold Above Background)” value was 1 Fold Above Background.

Turning to B5, the “FACS Cell Binding (Fold Above Background)” value is recorded as 1 Fold Above Background.

The next experiment addresses T1, HEK293/mPRLR. The experiment can be described thus: FACS cell surface binding.
Conditions: not given
The method in brief: as §1
Consider B1, for which the “FACS Cell Binding (Fold Above Background)” value was determined as 1 Fold Above Background.

Regarding B2, the “FACS Cell Binding (Fold Above Background)” value came to 2 Fold Above Background.

Turning to B3, the “FACS Cell Binding (Fold Above Background)” value was determined as 2 Fold Above Background.

Take B4: the “FACS Cell Binding (Fold Above Background)” value stood at 3 Fold Above Background.

Consider B5, for which the “FACS Cell Binding (Fold Above Background)” value stood at 1 Fold Above Background.

Another experiment deals with T2, HEK293/hPRLR. The experiment can be described thus: FACS cell surface binding.
Conditions: not given
The method, boiled down: as §1
Take B1: the “FACS Cell Binding (Fold Above Background)” value was found to be 35 Fold Above Background.

B2: the “FACS Cell Binding (Fold Above Background)” value stood at 1 Fold Above Background.

Take B3: the “FACS Cell Binding (Fold Above Background)” value is on record as 2 Fold Above Background.

Regarding B4, the “FACS Cell Binding (Fold Above Background)” value was determined as 37 Fold Above Background.

With B5, the “FACS Cell Binding (Fold Above Background)” value came to 1 Fold Above Background.

The target in the next experiment is T3, T47D (native PRLR expressing cell line). The experiment can be described thus: FACS cell surface binding.
Conditions: not given
The method, boiled down: as §1
In the case of B1, the “FACS Cell Binding (Fold Above Background)” value stood at 41 Fold Above Background.

For B2, the “FACS Cell Binding (Fold Above Background)” value is reported as 38 Fold Above Background.

Turning to B3, the “FACS Cell Binding (Fold Above Background)” value was found to be 43 Fold Above Background.

Turning to B4, the “FACS Cell Binding (Fold Above Background)” value was 37 Fold Above Background.

As for B5, the “FACS Cell Binding (Fold Above Background)” value worked out at 34 Fold Above Background.

Another experiment deals with T4, hPRLR.mFc (soluble dimeric human PRLR) (Homo sapiens, UniProt P16471).
T4 construct: dimeric (hPRLR.mFc)
T4 sequence (P16471 with tags, fused parts or gaps): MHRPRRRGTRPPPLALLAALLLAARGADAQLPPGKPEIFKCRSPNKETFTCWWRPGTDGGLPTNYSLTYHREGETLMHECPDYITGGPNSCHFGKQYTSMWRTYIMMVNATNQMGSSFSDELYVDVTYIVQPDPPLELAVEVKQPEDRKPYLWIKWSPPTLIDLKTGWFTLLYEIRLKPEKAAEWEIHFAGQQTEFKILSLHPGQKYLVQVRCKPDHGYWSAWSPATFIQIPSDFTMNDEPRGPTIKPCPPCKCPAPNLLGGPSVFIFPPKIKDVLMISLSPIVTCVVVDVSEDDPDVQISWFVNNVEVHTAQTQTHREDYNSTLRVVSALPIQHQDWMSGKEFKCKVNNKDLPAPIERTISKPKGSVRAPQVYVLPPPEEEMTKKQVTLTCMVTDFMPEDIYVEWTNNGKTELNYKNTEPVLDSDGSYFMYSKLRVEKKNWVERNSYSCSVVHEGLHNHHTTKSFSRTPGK
The experiment can be described thus: Surface plasmon resonance (Biacore T200), mAb-capture format. Type of experiment: binding. As to conditions: 25° C., antibody-capture format, analyte hPRLR.mFc. The method, boiled down:
(§2)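 Antibodies expressed as human IgG1 Fc variants were captured on an anti-human Fc sensor surface, then soluble PRLR protein was injected as analyte: monomeric human or cynomolgus PRLR.mmh, or dimeric human PRLR.mFc. ka and kd came from a 1:1 binding model fit.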
A word on the Kd: it is the constant that tells how readily two partners part at equilibrium. A low value points to a tighter complex. B1 showed a Kd of 0.184 nM and a T½ of 133 min.

B2 came in with a Kd of 0.122 nM and a T½ of 97 min.

Take B3: the affinity, expressed as Kd, was 0.331 nM and the T½ is recorded as 153 min.

Molecule B4 gave a Kd of 0.313 nM and a T½ of 122 min.

Regarding B5, binding was characterised by a dissociation constant (Kd) of 0.0545 nM and the T½ amounted to 137 min.

The experiment is the same for the next values; noted with them: 37° C., antibody-capture format, analyte hPRLR.mFc.
B1 came in with a dissociation constant Kd of 0.229 nM and a T½ of 79 min.

B2 displayed an equilibrium dissociation constant (Kd) of 0.0691 nM and a T½ of 93 min.

Turning to B3, the dissociation constant (Kd) was 0.347 nM and the T½ stood at 81 min.

B4 registered a dissociation constant Kd of 0.352 nM and a T½ of 66 min.

With B5, the equilibrium dissociation constant (Kd) amounted to 0.0402 nM and the T½ turned out to be 149 min.

Another experiment has as its target mfPRLR.mmh (monomeric macaca fascicularis PRLR). Described as above. To be noted: 25° C., antibody-capture format, analyte mfPRLR.mmh. It counts as binding. The method, boiled down: as §2
On to B1, for which binding was put at a Kd of 1.25 nM and the T½ was found to be 30 min.

B2 came in with a Kd of 3.12 nM and a T½ of 6 min.

Consider B3, for which the Kd is 2.22 nM and the T½ is 29 min.

In turn, B4 yielded a dissociation constant Kd of 4.17 nM and a T½ of 12 min.

For the molecule B5, binding was put at a Kd of 2.33 nM and the T½ was determined as 6 min.

The experiment is the same for the next values; noted with them: 37° C., antibody-capture format, analyte mfPRLR.mmh.
On to B1, for which the Kd was determined as 2.48 nM and the T½ came out at 11 min.

B2 registered a dissociation constant Kd of 9.9 nM and a T½ of 1 min.

For B3, the Kd is 4.59 nM and the T½ came to 11 min.

In the case of B4, the Kd worked out at 9.37 nM and the T½ came out at 4 min.

On to B5, for which binding was characterised by a dissociation constant (Kd) of 6.16 nM and the T½ amounted to 2 min.

For the next experiment, the target named is T5, hPRLR.mmh (soluble monomeric human PRLR) (Homo sapiens, UniProt P16471).
T5 construct: soluble monomeric (hPRLR.mmh); mmh (myc-myc-hexahistidine)
T5 sequence (P16471 with tags, fused parts or gaps): as the sequence (as listed by the source) above, with V105I, T139A, M154I, T187I, I236T counted along it
Described as above. Type of experiment: binding. As to conditions: 25° C., antibody-capture format, analyte hPRLR.mmh. The method, boiled down: as §2
Regarding B1, the affinity, expressed as Kd, was 0.972 nM and the T½ worked out at 28 min.

For the molecule B2, the dissociation constant (Kd) was 1.73 nM and the T½ is 6 min.

In turn, B3 came in with an equilibrium dissociation constant (Kd) of 1.41 nM and a T½ of 35 min.

In turn, B4 registered a Kd of 2.45 nM and a T½ of 15 min.

For B5, binding was put at a Kd of 1.52 nM and the T½ stood at 7 min.

The experiment is the same for the next values; noted with them: 37° C., antibody-capture format, analyte hPRLR.mmh.
The molecule B1 returned a dissociation constant (Kd) of 1.47 nM and a T½ of 10 min.

B2 showed a Kd of 6.37 nM and a T½ of 1 min.

As for B3, the equilibrium dissociation constant (Kd) is 3.02 nM and the T½ was 11 min.

Take B4: the Kd worked out at 5.27 nM and the T½ is reported as 5 min.

In turn, B5 registered a dissociation constant (Kd) of 3.81 nM and a T½ of 2 min.
